Experimental findings from patent publication US20260265321A1, “PEPTIDE AND POLYPEPTIDE INHIBITING THE NF-KB SIGNALING PATHWAY” (Centre National de la Recherche Scientifique, priority 2023, published 2026) are described below.

Numbering of substitutions follows the chain as printed.

Assay [1] deals with T1, G1-IKKβ L654D/W655D (GPCA construct) (human, UniProt O14920 1-756).
T1 construct: not shown: Gluc1 fragment of Gaussia princeps luciferase and flexible 20 amino acid linker, N-terminal
T1 sequence (looked up): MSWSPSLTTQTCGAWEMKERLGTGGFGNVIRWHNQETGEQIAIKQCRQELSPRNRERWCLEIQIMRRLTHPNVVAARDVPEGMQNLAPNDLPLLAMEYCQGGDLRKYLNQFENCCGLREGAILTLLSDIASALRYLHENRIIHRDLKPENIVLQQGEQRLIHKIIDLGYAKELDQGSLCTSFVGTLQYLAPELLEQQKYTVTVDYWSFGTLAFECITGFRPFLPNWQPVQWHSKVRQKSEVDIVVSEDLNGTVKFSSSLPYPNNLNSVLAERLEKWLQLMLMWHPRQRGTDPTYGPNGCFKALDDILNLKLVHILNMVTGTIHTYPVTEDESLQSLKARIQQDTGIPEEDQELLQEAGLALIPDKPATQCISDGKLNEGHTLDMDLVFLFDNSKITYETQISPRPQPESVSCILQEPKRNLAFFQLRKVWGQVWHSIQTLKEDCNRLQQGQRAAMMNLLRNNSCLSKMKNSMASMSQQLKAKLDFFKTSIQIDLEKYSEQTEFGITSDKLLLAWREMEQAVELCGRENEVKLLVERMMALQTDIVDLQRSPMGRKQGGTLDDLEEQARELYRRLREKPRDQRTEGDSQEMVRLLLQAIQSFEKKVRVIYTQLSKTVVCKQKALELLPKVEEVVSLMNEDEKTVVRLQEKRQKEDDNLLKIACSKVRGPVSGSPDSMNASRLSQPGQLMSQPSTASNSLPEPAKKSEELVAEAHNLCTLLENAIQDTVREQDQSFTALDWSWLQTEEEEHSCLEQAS
Nature of the assay: GPCA in HEK293T cells. The protocol: (§1) HEK293T cells were transfected using the reverse transfection method. Transfection mixes containing 100 ng of pSPICA-N2 and 100 ng of pSPICA-N1 plasmids expressing test proteins plus JetPEI® (Polyplus transfection) were dispensed in white 96-well plates. HEK293T cells were then seeded on the DNA mixes at a concentration of 4.2×10^4 cells per well. 48 hours after transfection, cells were washed with 50 μl of PBS and lysed with 40 μl of Renilla lysis buffer (Promega, E2820) for 30 minutes with agitation. Gaussia princeps luciferase enzymatic activity was measured using a Berthold Centro LB960 luminometer by injecting 50 μl per well of luciferase substrate reagent (Promega, E2820) and counting luminescence for 10 seconds. Results are expressed as a fold change normalized over the sum of controls, specified herein as normalized luminescence ratio (NLR) 29. For a given protein pair A/B, NLR=(Gluc1-A+Gluc2-B)/[(Gluc1-A+Gluc2)+(Gluc1+Gluc2-B)]. All interactions were measured in three independent experiments, with each experiment being carried out in triplicate. The expression levels of Gluc1- and Gluc2-fused proteins were checked by Western blotting. 24 hours post-transfection, HEK293T cells were collected, lysed by incubation on ice and centrifuged. Aliquots of cleared supernatants were loaded onto an 10% SDS-PAGE gel.

The target in assay [2] is T2, G1-IKKα, full-length wt IKKα fused to the Gluc1 fragment (human, UniProt O15111 1-745).
T2 construct: Expressed in HEK293T cells for GPCA; full-length; also called Gluc1-IKKα; not shown: Gluc1 fragment of Gaussia princeps luciferase and flexible 20 amino acid linker, N-terminal
T2 sequence (looked up): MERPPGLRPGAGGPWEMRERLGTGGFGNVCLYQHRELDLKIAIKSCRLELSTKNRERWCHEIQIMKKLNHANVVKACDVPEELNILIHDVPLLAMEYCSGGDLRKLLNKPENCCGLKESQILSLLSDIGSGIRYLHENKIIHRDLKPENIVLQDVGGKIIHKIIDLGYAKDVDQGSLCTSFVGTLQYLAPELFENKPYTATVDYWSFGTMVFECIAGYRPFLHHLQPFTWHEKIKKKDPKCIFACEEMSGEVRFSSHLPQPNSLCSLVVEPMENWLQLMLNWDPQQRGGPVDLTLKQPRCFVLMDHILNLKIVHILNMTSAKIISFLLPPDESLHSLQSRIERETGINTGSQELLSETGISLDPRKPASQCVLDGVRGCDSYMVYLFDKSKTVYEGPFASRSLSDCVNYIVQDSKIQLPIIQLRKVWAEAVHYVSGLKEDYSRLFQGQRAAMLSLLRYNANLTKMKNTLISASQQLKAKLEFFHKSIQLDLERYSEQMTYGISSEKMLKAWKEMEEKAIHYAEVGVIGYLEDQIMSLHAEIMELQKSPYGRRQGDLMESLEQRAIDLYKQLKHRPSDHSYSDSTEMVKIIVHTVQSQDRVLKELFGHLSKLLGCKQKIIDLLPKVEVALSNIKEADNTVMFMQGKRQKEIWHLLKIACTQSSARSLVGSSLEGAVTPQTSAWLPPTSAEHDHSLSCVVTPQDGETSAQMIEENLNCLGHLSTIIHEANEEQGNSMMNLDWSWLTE
In words: GPCA (Gaussia princeps protein complementation assay) in HEK293T cells, NLR, mean ± SD of triplicates. The protocol: as §1

Assay [3] deals with T3, G1-IKKβ, full-length wt IKKβ fused to the Gluc1 fragment (human, UniProt O14920 1-756).
T3 construct: Expressed in HEK293T cells for GPCA; full-length; also called Gluc1-IKKβ; not shown: Gluc1 fragment of Gaussia princeps luciferase and flexible 20 amino acid linker, N-terminal
T3 sequence (looked up): T1 sequence (looked up) with D654L, D655W
Described as above. How it is done:
as §1

B1: G2-IκBα(73-317) (other, UniProt P25963 73-317, looked up)
chain: DGDSFLHLAIIHEEKALTMEVIRQVKGDLAFLNFQNNLQQTPLHLAVITNQPEIAEALLGAGCDPELRDFRGNTPLHLACEQGCLASVGVLTQSCTTPHLHSILKATNYNGHTCLHLASIHGYLGIVELLVSLGADVNAQEPCNGRTALHLAVDLQNPDLVSLLLKCGADVNRVTYQGYSPYQLTWGRPSTRIQQQLGQLTLENLQMLPESEDEESYDTESEFTEFTEDELPYDDCVFGGQRLTL
notes: range 73-317; Expressed in HEK293T cells for GPCA; also called N-terminal truncated IκBα (73-317) construct; not shown: Gluc2 fragment of Gaussia princeps luciferase and flexible 20 amino acid linker, N-terminal
B1: the binding result in assay [1] is on record as “no binding”; in assay [2] it was “binds”; in assay [3], “binds”.
